Results from US20260049138A1 (Chugai, published 2026).

B1: GLS3000 Q90S one-arm antibody (antibody, human IgG1, kappa, L234A L235A, N297A, name in Kabat numbering)
heavy: QVQLVESGGGVVQPGRSLRLSCAASGFTFSNAWMHWVRQAPGKGLEWVAQIKAKSNNYATYYAESVKGRFTISRDDSKNSLYLQMNSLKTEDTAVYYCRYVHYGAYYGVDAWGQGTTVTVSSASTKGPSVFPLAPSSKSTSGGTAALGCLVKDYFPEPVTVSWNSGALTSGVHTFPAVLQSSGLYSLSSVVTVPSSSLGTQTYICNVNHKPSNTKVDKKVEPKSCDKTHTCPPCPAPEAAGGPSVFLFPPKPKDTLMISRTPEVTCVVVDVSHEDPEVKFNWYVDGVEVHNAKTKPREEQYASTYRVVSVLTVLHQDWLNGKEYKCKVSNKALPAPIEKTISKAKGQPREPQVYTLPPSRCELTKNQVSLSCAVKGFYPSDIAVEWESNGQPENNYKTTPPVLDSDGSFFLVSKLTVDKSRWQQGNVFSCSVMHEALHNHYTQKSLSLSPDYKDDDDK
chain: EPKSSDKTHTCPPCPAPELLGGPSVFLFPPKPKDTLMISRTPEVTCVVVDVSHEDPEVKFNWYVDGVEVHNAKTKPREEQYNSTYRVVSVLTVLHQDWLNGKEYKCKVSNKALPAPIEKTISKAKGQPREPQVCTLPPSRDELTKNQVSLWCLVKGFYPSDIAVEWESNGQPENNYKTTPPVLDSDGSFFLYSKLTVDKSRWQQGNVFSCSVMHEALHNRYTQKSLSLSP
light: DIVMTQSPLSLPVTPGEPASISCRSSQSLVHSNRNTYLHWYQQKPGQAPRLLIYKVSNRFSGVPDRFSGSGSGTDFTLKISRVEAEDVGVYYCGSGTQVPYTFGQGTKLEIKRTVAAPSVFIFPPSDEQLKSGTASVVCLLNNFYPREAKVQWKVDNALQSGNSQESVTEQDSKDSTYSLSSTLTLSKADYEKHKVYACEVTHQGLSSPVTKSFNRGEC
B2: GLS3000 Q90Y one-arm antibody (antibody, human IgG1, kappa, L234A L235A, N297A, name in Kabat numbering)
heavy: QVQLVESGGGVVQPGRSLRLSCAASGFTFSNAWMHWVRQAPGKGLEWVAQIKAKSNNYATYYAESVKGRFTISRDDSKNSLYLQMNSLKTEDTAVYYCRYVHYGAYYGVDAWGQGTTVTVSSASTKGPSVFPLAPSSKSTSGGTAALGCLVKDYFPEPVTVSWNSGALTSGVHTFPAVLQSSGLYSLSSVVTVPSSSLGTQTYICNVNHKPSNTKVDKKVEPKSCDKTHTCPPCPAPEAAGGPSVFLFPPKPKDTLMISRTPEVTCVVVDVSHEDPEVKFNWYVDGVEVHNAKTKPREEQYASTYRVVSVLTVLHQDWLNGKEYKCKVSNKALPAPIEKTISKAKGQPREPQVYTLPPSRCELTKNQVSLSCAVKGFYPSDIAVEWESNGQPENNYKTTPPVLDSDGSFFLVSKLTVDKSRWQQGNVFSCSVMHEALHNHYTQKSLSLSPDYKDDDDK
chain: EPKSSDKTHTCPPCPAPELLGGPSVFLFPPKPKDTLMISRTPEVTCVVVDVSHEDPEVKFNWYVDGVEVHNAKTKPREEQYNSTYRVVSVLTVLHQDWLNGKEYKCKVSNKALPAPIEKTISKAKGQPREPQVCTLPPSRDELTKNQVSLWCLVKGFYPSDIAVEWESNGQPENNYKTTPPVLDSDGSFFLYSKLTVDKSRWQQGNVFSCSVMHEALHNRYTQKSLSLSP
light: DIVMTQSPLSLPVTPGEPASISCRSSQSLVHSNRNTYLHWYQQKPGQAPRLLIYKVSNRFSGVPDRFSGSGSGTDFTLKISRVEAEDVGVYYCGYGTQVPYTFGQGTKLEIKRTVAAPSVFIFPPSDEQLKSGTASVVCLLNNFYPREAKVQWKVDNALQSGNSQESVTEQDSKDSTYSLSSTLTLSKADYEKHKVYACEVTHQGLSSPVTKSFNRGEC
B3: GLS3000 Q93A one-arm antibody (antibody, human IgG1, kappa, L234A L235A, N297A, name in Kabat numbering)
heavy: QVQLVESGGGVVQPGRSLRLSCAASGFTFSNAWMHWVRQAPGKGLEWVAQIKAKSNNYATYYAESVKGRFTISRDDSKNSLYLQMNSLKTEDTAVYYCRYVHYGAYYGVDAWGQGTTVTVSSASTKGPSVFPLAPSSKSTSGGTAALGCLVKDYFPEPVTVSWNSGALTSGVHTFPAVLQSSGLYSLSSVVTVPSSSLGTQTYICNVNHKPSNTKVDKKVEPKSCDKTHTCPPCPAPEAAGGPSVFLFPPKPKDTLMISRTPEVTCVVVDVSHEDPEVKFNWYVDGVEVHNAKTKPREEQYASTYRVVSVLTVLHQDWLNGKEYKCKVSNKALPAPIEKTISKAKGQPREPQVYTLPPSRCELTKNQVSLSCAVKGFYPSDIAVEWESNGQPENNYKTTPPVLDSDGSFFLVSKLTVDKSRWQQGNVFSCSVMHEALHNHYTQKSLSLSPDYKDDDDK
chain: EPKSSDKTHTCPPCPAPELLGGPSVFLFPPKPKDTLMISRTPEVTCVVVDVSHEDPEVKFNWYVDGVEVHNAKTKPREEQYNSTYRVVSVLTVLHQDWLNGKEYKCKVSNKALPAPIEKTISKAKGQPREPQVCTLPPSRDELTKNQVSLWCLVKGFYPSDIAVEWESNGQPENNYKTTPPVLDSDGSFFLYSKLTVDKSRWQQGNVFSCSVMHEALHNRYTQKSLSLSP
light: DIVMTQSPLSLPVTPGEPASISCRSSQSLVHSNRNTYLHWYQQKPGQAPRLLIYKVSNRFSGVPDRFSGSGSGTDFTLKISRVEAEDVGVYYCGQGTAVPYTFGQGTKLEIKRTVAAPSVFIFPPSDEQLKSGTASVVCLLNNFYPREAKVQWKVDNALQSGNSQESVTEQDSKDSTYSLSSTLTLSKADYEKHKVYACEVTHQGLSSPVTKSFNRGEC
B4: GLS3000 Q93D one-arm antibody (antibody, human IgG1, kappa, L234A L235A, N297A, name in Kabat numbering)
heavy: QVQLVESGGGVVQPGRSLRLSCAASGFTFSNAWMHWVRQAPGKGLEWVAQIKAKSNNYATYYAESVKGRFTISRDDSKNSLYLQMNSLKTEDTAVYYCRYVHYGAYYGVDAWGQGTTVTVSSASTKGPSVFPLAPSSKSTSGGTAALGCLVKDYFPEPVTVSWNSGALTSGVHTFPAVLQSSGLYSLSSVVTVPSSSLGTQTYICNVNHKPSNTKVDKKVEPKSCDKTHTCPPCPAPEAAGGPSVFLFPPKPKDTLMISRTPEVTCVVVDVSHEDPEVKFNWYVDGVEVHNAKTKPREEQYASTYRVVSVLTVLHQDWLNGKEYKCKVSNKALPAPIEKTISKAKGQPREPQVYTLPPSRCELTKNQVSLSCAVKGFYPSDIAVEWESNGQPENNYKTTPPVLDSDGSFFLVSKLTVDKSRWQQGNVFSCSVMHEALHNHYTQKSLSLSPDYKDDDDK
chain: EPKSSDKTHTCPPCPAPELLGGPSVFLFPPKPKDTLMISRTPEVTCVVVDVSHEDPEVKFNWYVDGVEVHNAKTKPREEQYNSTYRVVSVLTVLHQDWLNGKEYKCKVSNKALPAPIEKTISKAKGQPREPQVCTLPPSRDELTKNQVSLWCLVKGFYPSDIAVEWESNGQPENNYKTTPPVLDSDGSFFLYSKLTVDKSRWQQGNVFSCSVMHEALHNRYTQKSLSLSP
light: DIVMTQSPLSLPVTPGEPASISCRSSQSLVHSNRNTYLHWYQQKPGQAPRLLIYKVSNRFSGVPDRFSGSGSGTDFTLKISRVEAEDVGVYYCGQGTDVPYTFGQGTKLEIKRTVAAPSVFIFPPSDEQLKSGTASVVCLLNNFYPREAKVQWKVDNALQSGNSQESVTEQDSKDSTYSLSSTLTLSKADYEKHKVYACEVTHQGLSSPVTKSFNRGEC

Biological target: T1, CD3ε homodimer protein (human, UniProt P07766 23-126, limits assumed)
T1 construct: also called CD3 (CD3ε)
T1 sequence (P07766 23-126 limits assumed): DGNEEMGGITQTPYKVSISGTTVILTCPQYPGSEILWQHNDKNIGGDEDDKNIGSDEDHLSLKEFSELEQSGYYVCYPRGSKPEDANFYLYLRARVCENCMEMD
Assay: SPR Biacore T200, CD3ε homodimer on chip;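 further: Light-chain single-residue variant antibodies injected over amine-coupled CD3ε homodimer on a CM4 chip at 25 °C, bound amount divided by that of the GLS3000-containing antibody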

Row | Binder | ratio of amount bound vs unaltered GLS3000
1 | B1 | 0.73
2 | B2 | 0.17
3 | B3 | 0.85
4 | B4 | 0.72
